Measurements as given in PMC12331092, “An arginine switch drives the stepwise activation of β-arrestin by CXCR7” (PLOS Biology, 2025).
Each block holds one binder with its values, some of them ahead of it. Square brackets hold non-standard residues; d marks the D form. Ends that are not written are not given here. pT = C[C@@H](OP(=O)(O)O)[C@H](N)C(=O)O; pS = N[C@@H](COP(=O)(O)O)C(=O)O

Experiments:
Settings in all cases: both partners purified
βarr2 R166A mutant = molecular target: T1, βarr2 R166A mutant (Rattus norvegicus, UniProt P29067 1-410, R166A); experiment: ITC; 1 mM peptide injected (2.5 μL, 200 s intervals) into 200 μM βarr2 in the cell; 298 K; 20 mM HEPES pH 7.0, 200 mM NaCl; two-site model for the wild type
T1 construct: β-arrestin2, rat (as the wild type m1), with R166A; also called R166A (site I); source: purified
T1 sequence (P29067 whole entry R166A): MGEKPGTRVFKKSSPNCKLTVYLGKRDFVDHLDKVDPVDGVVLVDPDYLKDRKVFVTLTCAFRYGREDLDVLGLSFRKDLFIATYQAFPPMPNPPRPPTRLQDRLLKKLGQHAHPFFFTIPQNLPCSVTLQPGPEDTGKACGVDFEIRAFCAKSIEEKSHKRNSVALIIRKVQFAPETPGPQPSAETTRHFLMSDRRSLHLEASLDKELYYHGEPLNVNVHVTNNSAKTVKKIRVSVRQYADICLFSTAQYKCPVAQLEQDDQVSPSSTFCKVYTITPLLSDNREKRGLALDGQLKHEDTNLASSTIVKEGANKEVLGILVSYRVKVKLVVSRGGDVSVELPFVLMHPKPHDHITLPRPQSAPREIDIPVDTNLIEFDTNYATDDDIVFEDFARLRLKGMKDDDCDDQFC

βarr2 R394A mutant = molecular target: T2, βarr2 R394A mutant (Rattus norvegicus, UniProt P29067 1-410, R394A); experiment: as above
T2 construct: β-arrestin2, rat (as the wild type m1), with R394A; also called R394A (site II); source: purified
T2 sequence (P29067 whole entry R394A): as the sequence (P29067 whole entry R166A) above, with A166R, R394A counted along it

[1] = molecular target: T3, Rattus norvegicus wild-type β-arrestin2 (Rattus norvegicus, UniProt P29067 1-410); experiment: as above
T3 construct: β-arrestin2, Rattus norvegicus, UniProt P29067, cloned into pET-28a; also called βarr2; wild-type βarr2; source: E. coli BL21(DE3)pLysS, purified (Ni-sepharose, HiTrap heparin, Superdex 200 gel filtration); not shown: His6, N-terminal, kept
T3 sequence (P29067 whole entry): as the sequence (P29067 whole entry R166A) above, with A166R counted along it

[2] = molecular target: T3, Rattus norvegicus wild-type β-arrestin2; experiment: pull-down; 20 μg βarr2 pre-incubated with or without peptide (5:1 peptide:βarr2, 4 °C, 1 h), then GST beads with 30 μg GST-clathrin, 2 h at 4 °C; 20 mM Tris-HCl pH 8.0, 100 mM NaCl, 1 mM DTT; GSH elution, anti-His Western blot

- Kd (βarr2 R166A mutant): 16.4 µM
- Kd (βarr2 R394A mutant): 1.1 µM
- binding result [1]: binds
B1: C7pp2, phosphopeptide from the carboxyl terminus of CXCR7 (residues 346-359) (peptide, UniProt P25106 346-359, looked up)
peptide: ASRV[pS]E[pT]EY[pS]ALEQ
notes: CXCR7 (atypical chemokine receptor), C-terminal residues 346-359; also called distal phospho-site cluster PxPxxP; source: synthetic peptide (NovoPep and Tufts University Core Facility)

- binding result [2]: binds
B2: C7pp3, phosphopeptide from the carboxyl terminus of CXCR7 (residues 346-362) (peptide, UniProt P25106 346-362, looked up)
peptide: A[pS]RV[pS]E[pT]EY[pS]ALEQ[pS][pT]K
notes: CXCR7, C-terminal residues 346-362; source: synthetic peptide (NovoPep and Tufts University Core Facility)
